The results in this text go back to PMC7762974, “Recombination and Pol ζ Rescue Defective DNA Replication upon Impaired CMG Helicase—Pol ε Interaction” (International Journal of Molecular Sciences, 2020).

Holding throughout (experiment): pull-down; 2 pmol Halo-Sld5 GINS fixed on 10 µL HaloLink Resin, blocked with casein and BSA; 2 pmol Pol ε with 2 mg/mL BSA in 400 µL 25 mM HEPES-KOH pH 7.6, 200 mM K-acetate, 2 mM Mg-acetate, 10% glycerol, 0.1% Tween 20, 0.01% NP-40, 30 °C for 30 min; blot for Dpb2 and Psf2, band intensity compared to Psf1
Assay [1] addresses GINS complex with the Psf1-1 mutant subunit (R84G), Psf2, Psf3, Halotag-Sld5 (S. cerevisiae) (UniProt Q12488).
Assay [2] has as its target GINS complex with the Psf1-100 mutant subunit (V161A, F162A, I163A, D164A), Psf2, Psf3, Halotag-Sld5 (S. cerevisiae) (UniProt Q12488).
Assay [3] addresses T1, DNA polymerase epsilon (Pol ε) comprising Pol2, Dpb2, Dpb3 and Dpb4 subunits (S. cerevisiae, UniProt P21951 1-2222; P24482 1-689; P27344 1-201; Q04603 1-196).
T1 construct: Pol2, catalytic subunit of DNA polymerase epsilon, S. cerevisiae; Dpb2, noncatalytic subunit of DNA polymerase epsilon, S. cerevisiae; Dpb3, noncatalytic subunit of DNA polymerase epsilon, S. cerevisiae; Dpb4, noncatalytic subunit of DNA polymerase epsilon, S. cerevisiae; source: purified as described previously [40]; copies: + + +
The following applies: both partners purified.

T1 sequence (P21951 whole entry, chain 1 of 4): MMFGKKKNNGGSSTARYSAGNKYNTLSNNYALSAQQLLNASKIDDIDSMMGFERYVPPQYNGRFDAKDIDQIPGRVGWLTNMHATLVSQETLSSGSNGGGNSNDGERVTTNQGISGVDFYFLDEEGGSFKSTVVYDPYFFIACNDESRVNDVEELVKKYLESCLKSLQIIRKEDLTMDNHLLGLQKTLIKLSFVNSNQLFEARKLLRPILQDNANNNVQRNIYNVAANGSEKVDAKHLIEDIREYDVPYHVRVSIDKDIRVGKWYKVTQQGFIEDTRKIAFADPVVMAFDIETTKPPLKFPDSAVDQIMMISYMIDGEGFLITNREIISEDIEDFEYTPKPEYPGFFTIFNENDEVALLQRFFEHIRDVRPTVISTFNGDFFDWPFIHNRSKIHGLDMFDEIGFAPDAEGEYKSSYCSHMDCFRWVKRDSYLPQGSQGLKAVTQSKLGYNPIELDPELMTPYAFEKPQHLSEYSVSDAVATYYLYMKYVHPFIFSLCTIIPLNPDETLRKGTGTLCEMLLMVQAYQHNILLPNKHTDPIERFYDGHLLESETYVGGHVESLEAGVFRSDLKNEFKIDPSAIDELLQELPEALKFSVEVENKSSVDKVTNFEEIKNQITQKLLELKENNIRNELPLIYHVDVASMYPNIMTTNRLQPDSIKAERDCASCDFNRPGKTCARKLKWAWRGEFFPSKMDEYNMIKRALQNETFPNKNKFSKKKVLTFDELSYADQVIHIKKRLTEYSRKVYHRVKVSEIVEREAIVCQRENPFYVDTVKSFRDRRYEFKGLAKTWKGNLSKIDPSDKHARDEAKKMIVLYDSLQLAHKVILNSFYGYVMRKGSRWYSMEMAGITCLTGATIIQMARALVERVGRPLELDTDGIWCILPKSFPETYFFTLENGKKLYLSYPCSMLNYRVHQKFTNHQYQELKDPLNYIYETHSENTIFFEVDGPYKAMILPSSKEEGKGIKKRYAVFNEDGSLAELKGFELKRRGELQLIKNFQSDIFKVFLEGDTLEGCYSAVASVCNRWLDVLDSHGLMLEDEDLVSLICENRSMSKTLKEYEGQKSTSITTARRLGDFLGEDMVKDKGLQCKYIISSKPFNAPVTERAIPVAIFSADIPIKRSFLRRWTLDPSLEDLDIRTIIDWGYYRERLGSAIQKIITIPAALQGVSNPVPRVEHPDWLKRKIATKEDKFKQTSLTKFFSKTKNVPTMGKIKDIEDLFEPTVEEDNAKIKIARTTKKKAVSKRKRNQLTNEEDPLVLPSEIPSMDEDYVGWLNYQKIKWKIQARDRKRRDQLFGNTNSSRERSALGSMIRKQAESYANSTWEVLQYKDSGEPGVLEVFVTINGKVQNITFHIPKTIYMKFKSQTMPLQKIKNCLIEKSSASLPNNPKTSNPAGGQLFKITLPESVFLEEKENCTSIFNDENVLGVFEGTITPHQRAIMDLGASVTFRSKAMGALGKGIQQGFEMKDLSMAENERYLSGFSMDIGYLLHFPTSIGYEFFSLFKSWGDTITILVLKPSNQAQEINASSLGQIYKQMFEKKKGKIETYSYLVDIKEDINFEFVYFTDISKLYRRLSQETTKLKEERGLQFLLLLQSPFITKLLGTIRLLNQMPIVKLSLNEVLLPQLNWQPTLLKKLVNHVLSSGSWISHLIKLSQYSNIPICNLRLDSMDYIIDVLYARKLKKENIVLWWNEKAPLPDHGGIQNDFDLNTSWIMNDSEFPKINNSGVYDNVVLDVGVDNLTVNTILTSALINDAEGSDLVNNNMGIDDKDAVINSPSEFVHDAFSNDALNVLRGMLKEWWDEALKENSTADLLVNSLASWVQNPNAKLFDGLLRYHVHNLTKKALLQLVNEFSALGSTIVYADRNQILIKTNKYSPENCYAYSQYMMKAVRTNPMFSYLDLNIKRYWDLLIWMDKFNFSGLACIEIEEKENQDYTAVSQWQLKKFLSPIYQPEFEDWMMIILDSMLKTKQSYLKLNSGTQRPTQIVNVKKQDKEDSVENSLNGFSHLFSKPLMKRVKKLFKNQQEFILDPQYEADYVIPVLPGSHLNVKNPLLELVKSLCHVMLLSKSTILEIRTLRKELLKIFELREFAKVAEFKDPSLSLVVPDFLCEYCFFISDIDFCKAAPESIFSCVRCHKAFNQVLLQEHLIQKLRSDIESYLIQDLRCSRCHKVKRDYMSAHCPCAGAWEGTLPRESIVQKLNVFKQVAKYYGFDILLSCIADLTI
T1 sequence (P24482 whole entry, chain 2 of 4): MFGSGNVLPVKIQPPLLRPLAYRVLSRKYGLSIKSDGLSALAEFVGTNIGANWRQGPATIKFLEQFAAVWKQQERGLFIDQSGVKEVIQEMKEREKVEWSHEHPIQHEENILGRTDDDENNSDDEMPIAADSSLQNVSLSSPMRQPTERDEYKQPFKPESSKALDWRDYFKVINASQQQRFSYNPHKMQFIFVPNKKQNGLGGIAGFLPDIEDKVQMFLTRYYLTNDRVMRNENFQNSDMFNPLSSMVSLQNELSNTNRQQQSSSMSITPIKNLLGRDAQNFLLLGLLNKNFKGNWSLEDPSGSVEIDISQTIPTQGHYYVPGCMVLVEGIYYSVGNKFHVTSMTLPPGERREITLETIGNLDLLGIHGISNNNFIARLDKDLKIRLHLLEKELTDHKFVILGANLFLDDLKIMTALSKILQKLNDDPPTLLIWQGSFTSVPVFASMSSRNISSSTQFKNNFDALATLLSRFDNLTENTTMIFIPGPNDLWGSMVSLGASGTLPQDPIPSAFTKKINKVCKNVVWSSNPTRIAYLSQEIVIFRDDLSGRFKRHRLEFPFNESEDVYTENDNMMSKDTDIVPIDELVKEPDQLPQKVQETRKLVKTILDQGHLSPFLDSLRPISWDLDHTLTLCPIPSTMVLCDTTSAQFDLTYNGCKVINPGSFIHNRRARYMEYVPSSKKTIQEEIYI
T1 sequence (P27344 whole entry, chain 3 of 4): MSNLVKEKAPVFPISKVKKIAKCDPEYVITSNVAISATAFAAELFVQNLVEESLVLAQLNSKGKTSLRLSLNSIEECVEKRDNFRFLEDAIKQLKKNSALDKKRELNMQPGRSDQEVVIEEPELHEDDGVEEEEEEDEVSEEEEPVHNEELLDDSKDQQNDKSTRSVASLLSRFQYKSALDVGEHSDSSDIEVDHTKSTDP
T1 sequence (Q04603 whole entry, chain 4 of 4): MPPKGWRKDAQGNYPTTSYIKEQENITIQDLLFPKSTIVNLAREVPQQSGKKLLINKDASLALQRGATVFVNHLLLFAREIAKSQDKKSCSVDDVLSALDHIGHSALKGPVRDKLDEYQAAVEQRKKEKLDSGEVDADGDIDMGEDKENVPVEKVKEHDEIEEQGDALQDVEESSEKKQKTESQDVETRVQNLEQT

Regarding “DNA polymerase epsilon (Pol ε) comprising Pol2, Dpb2, Dpb3 and Dpb4 subunits, P21951 1-2222; P24482 1-689; P27344 1-201; Q04603 1-196”, the band intensity compared to Psf1 (relative to Psf1) in assay [1] worked out at 0.96; in assay [2], 0.31.

B1: GINS complex (Psf1, Psf2, Psf3, Halotag-Sld5), wild type (complex, S. cerevisiae)
chain 1: MYGDLGNKLVLEAKRTKQLYARSNQDVNLPMYHEDIIRNILKEVSNLRKNTEYLKEQQQLGMLDDKVAKCQYFVTLLCMERNKRCLLAYQRLRTDILDSMAWNNNGLDLMSSITFSQQDTNNLSHQEQEYLKEYCDLITDLKSGDLVDIDLSGSLVPPSDVFIDVRVLKDAGEIQTEYGVFNLIKDSQFFVRQSDVERLIQQGYLQKI
chain 2: MSLPAHLQQTFSPEEIQFIVENEPIKIFPRITTRQKIRGDDRGTGNHTRWQLITTDDKALNNMVAMRSTEVVLWIALLLKQQSKCSIVAPQWLTTKELDRKIQYEKTHPDRFSELPWNWLVLARILFNKAKDDFHDPIHELRGKIQDLREIRQIKVLKGLKYLNESHLQLDNLSLLEINELRPFITEIMDKLREIHTASLTAGTENDEEEFNI
chain 3: MGYYDIDDVLADGTEFPCKFQYDIPGLGYLENNPGRPITKNTKLSLPLWLARILAIVGGDEALVDEEPVPFVELLPPDMFSTKVMNAIKTDPVALDLHSINSHFFSLAIKWIMLFSEKELANVVSELLLQRAQELNHHASSLSIDLNADSTGKNSANTNIATSTFLLKLEEMEKEIYKKSHESYKDTKRWMFKK
chain 4: MDINIDDILAELDKETTAVDSTKITQGSSSTTHRDANTIVGSSLDLNDKTQIYVSPQQDFSDLMKSWKNERCSPELLPYPHQLMKRLLNRISMQSQLIENISMGFLDMQNASNANPPMPNESKLPLLCMETELERLKFVIRSYIRCRLSKIDKFSLYLRQLNEDENSLISLTDLLSKDEIKYHDTHSLIWLKLVNDSILKYMPEELQAINDTEGSVNMIDEPDWNKFVFIHVNGPPDGKWNEDPLLQENEFGKPCYTVTIPDLKEEVELTIGSIYVMRYEVIRDLLRDDKVALI
notes: Psf1 subunit of GINS, S. cerevisiae; Psf2 subunit of GINS, S. cerevisiae; Psf3 subunit of GINS, S. cerevisiae; Sld5 subunit of GINS, S. cerevisiae; also called GINS_(Psf1); WT; source: purified as described previously [40]; copies: + + +
For B1, the binding result in assay [3] is “binds”.
